The experiment has as its target SARS-CoV-2 receptor-binding domain (RBD) (SARS-CoV-2 (Wuhan-Hu-1), UniProt P0DTC2). Description: cell-based or functional assay.

B1: monoclonal antibody 910-30, IgG (antibody, V domains shown)
VH: EVQLVESGGGLVQPGGSLRLSCAASGFTVSSNYMSWVRQAPGKGLEWVSLIYSGGSTYYADSVKGRFTISRHNSKNTLYLQMNSLRAEDTAVYYCARIYGDYAWGQGTLVTVSS
VL: not shown
For B1, the “IC50 of neutralisation of authentic SARS-CoV-2; blocks RBD binding to ACE2” value stood at 0.142 µg/mL.

The record behind these values is PMC8479507 (Cell Reports, 2021).
